Experimental data published in PMC11055898 (2024).

How the values were obtained:
mouse CD64 [1] = test: SPR
mouse CD16 [2] = test: SPR
mouse CD16-2 [3] = test: SPR
mouse CD64 [4] = test: SPR; remark: listed apart in the source
mouse CD16 [5] = test: SPR; remark: listed apart in the source
mouse CD16-2 [6] = test: SPR; remark: listed apart in the source
human CD64 (FcgRI) [7] = target: T1, human CD64 (FcgRI) (human, UniProt P12314 16-374, biotin (biotinylated Fc receptors)); test: SPR
human FcRn [8] = test: SPR; pH 6.2
human CD64 (FcgRI) [9] = target: T1, human CD64 (FcgRI); test: SPR; remark: listed apart in the source
human FcRn [10] = test: SPR; pH 6.2; remark: listed apart in the source

T1 sequence (P12314 16-374): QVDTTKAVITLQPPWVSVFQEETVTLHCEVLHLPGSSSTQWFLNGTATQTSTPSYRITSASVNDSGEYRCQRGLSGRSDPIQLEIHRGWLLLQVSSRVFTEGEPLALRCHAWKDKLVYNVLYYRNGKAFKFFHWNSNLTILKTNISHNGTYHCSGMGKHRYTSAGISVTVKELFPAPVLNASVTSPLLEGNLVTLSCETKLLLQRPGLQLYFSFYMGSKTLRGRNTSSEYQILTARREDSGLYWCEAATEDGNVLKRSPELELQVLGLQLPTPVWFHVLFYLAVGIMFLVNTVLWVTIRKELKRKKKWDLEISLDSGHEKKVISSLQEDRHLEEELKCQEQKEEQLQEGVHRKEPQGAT

B1: Ab11 IgGh47 (antibody)
chain 1: QVTLKESGPVLVKPTETLTLTCTVSGFSLSNAKMGVSWIRQPPGKALEWLAHIFSNDEKSYSTSLKSSLTISKDTSKSQVVLTMTNMDPVDTATYYCARLLWFGGNYFDYWGQGTLVTVSS
chain 2: not shown
Kd (mouse CD64 [1]): 7 nM | Kd (mouse CD16 [2]): 15 nM | Kd (mouse CD16-2 [3]): 24 nM | koff (mouse CD64 [4]): 0.00083 s⁻¹ | koff (mouse CD16 [5]): 0.00074 s⁻¹ | koff (mouse CD16-2 [6]): 0.0018 s⁻¹ | Kd (human CD64 (FcgRI) [7]): 2.1 nM | Kd (human FcRn [8]): 7.1 nM | koff (human CD64 (FcgRI) [9]): 0.00017 s⁻¹ | koff (human FcRn [10]): 0.00048 s⁻¹
